According to patent US20150010525A1, “Catalytic Tagging System to Study Macro-Molecular Interactions Using Engineered Ubiquitin Ligase and Ubiquitin-Like Proteins to Facilitate Substrate Identification” (THE REGENTS OF THE UNIVERSITY OF CALIFORNIA, priority 2012, published 2015):
Blank lines part the entries; values can stand above or below the molecule they belong to.

Assays:
[1] = molecular target: T1, XIAP (Homo sapiens, UniProt P61081+P98170); assay: SILAC mass spectrometry screen for XIAP substrates with NEDDylator^XIAP in apoptotic Jurkat cell lysate; format: biochemical; settings: Heavy lysate with Ubc12
T1 construct: The N-terminus (residues 1-434) of XIAP was then fused via a flexible Gly-Gly-Ser-Gly linker to the NEDD8 E2, Ubc12; GST (N, cleaved yes); made in house; host or cells: E. coli BL21 (DE3)
Protocol: Jurkat cells were grown in media containing either light or heavy isotopes of lysine and arginine and induced to undergo apoptosis with STS. Light cell extracts were incubated with the respective catalytic tagging system for each of the two IAPs and the heavy extracts labeled only with the wild-type NEDD8 E2, Ubc12. 64 mg regular L-Lys and 83.6 mg L-Arg.HCl were added to 1 liter RPMI-1640 minus L-Lys and L-Arg (Thermo/Pierce), 10% fetal bovine serum (FBS) to generate “Light” medium. 100 mg ^13C6^15N2 L-Lys.2HCl and 86 mg ^13C6 L-Arg.HCl (Cambridge Isotope) were added to the same amount of medium to generate the “Heavy” medium. Jurkat cells were cultured separately in “Light” or “Heavy” medium for 7 days to allow for thorough isotope incorporation. For IAP substrate identification, 400 million cells were treated with 2 μM STS for 4 hours, harvested, lysed in M-PER mammalian protein extraction buffer (Thermo/Pierce) in the presence of protease inhibitors (100× ProteoBlock cocktail, Fermentas) and mixed with cell lysate prepared from 400 million untreated cells. The NEDDylated proteins were isolated under denaturing conditions via the HB-NEDD8 tag using a tandem affinity pull down procedure (Tagwerker et al., Mol Cell Proteomics 5:737-748 (2006)) (FIG. 11). Purified NEDDylated proteins were trypsinized and analyzed with tandem mass spectrometry (LC-MS/MS).
(§1) For SILAC experiments, Jurkat cells were cultured separately in “Light” (supplemented with regular Lys and Arg) or “Heavy” (supplemented with ^13C6^15N2 Lys and ^13C6 Arg) medium for 7 days to allow for thorough isotope incorporation. Apoptotic “Light” and “Heavy” cell extracts were prepared individually. The lysates were cleared by spinning and then diluted in 50 mM HEPES pH 7.4, 150 mM NaCl to 5 mg/ml and supplemented with 5 mM ATP, 10 mM MgCl2. Endogenous NEDD8 E1 is cell lysate was used to catalyze the reaction. HB-NEDD8 was added to both lysate at mass ratio 1:500; the catalytic tagging system was added to the “Light” lysate at mass ratio 1:1000. Equal molar of Ubc12 was added to the “Heavy” lysate. […] NEDDylated proteins were separated by one-dimensional SDS-PAGE, and trypsinized for LC-MS/MS analysis.
For liquid chromatography—Tandem mass spectrometry (LC-MS/MS) analysis, the tryptic peptides were first desalted and concentrated with a C18 Ziptip (Millipore). LC-MS/MS was carried out by reverse phase LC interfaced with a LTQ-Orbitrap (ThermoFisher Scientific) hybrid mass spectrometer. A nanoflow HPLC (NanoAcquity UPLC system, Waters Corporation) was equipped with a trap column (180 μm×20 mm, 5 μm SymmetryC18, from Waters) and an analytical column (100 μm×100 mm, 1.7 μm BEH130C18, from Waters). […]

[2] = molecular target: T2, cIAP1 (Homo sapiens, UniProt P61081+Q13490); assay: SILAC mass spectrometry screen for cIAP1 substrates with NEDDylator^cIAP1 in apoptotic Jurkat cell lysate; format: biochemical; settings: Light lysate with NEDDylator^cIAP1, Heavy lysate with Ubc12
T2 construct: cIAP1(ΔR) (residues 1-555); GST (N, cleaved yes); made in house; host or cells: E. coli BL21 (DE3)
Protocol: Jurkat cells were grown in media containing either light or heavy isotopes of lysine and arginine and induced to undergo apoptosis with STS. Light cell extracts were incubated with the respective catalytic tagging system for each of the two IAPs and the heavy extracts labeled only with the wild-type NEDD8 E2, Ubc12. […] 100 mg ^13C6^15N2 L-Lys.2HCl and 86 mg ^13C6 L-Arg.HCl (Cambridge Isotope) were added to the same amount of medium to generate the “Heavy” medium. Jurkat cells were cultured separately in “Light” or “Heavy” medium for 7 days to allow for thorough isotope incorporation. For IAP substrate identification, 400 million cells were treated with 2 μM STS for 4 hours, harvested, lysed in M-PER mammalian protein extraction buffer (Thermo/Pierce) in the presence of protease inhibitors (100× ProteoBlock cocktail, Fermentas) and mixed with cell lysate prepared from 400 million untreated cells. […] Purified NEDDylated proteins were trypsinized and analyzed with tandem mass spectrometry (LC-MS/MS).
as §1
For liquid chromatography—Tandem mass spectrometry (LC-MS/MS) analysis, the tryptic peptides were first desalted and concentrated with a C18 Ziptip (Millipore). LC-MS/MS was carried out by reverse phase LC interfaced with a LTQ-Orbitrap (ThermoFisher Scientific) hybrid mass spectrometer. A nanoflow HPLC (NanoAcquity UPLC system, Waters Corporation) was equipped with a trap column (180 μm×20 mm, 5 μm SymmetryC18, from Waters) and an analytical column (100 μm×100 mm, 1.7 μm BEH130C18, from Waters). Peptides were eluted over a linear gradient from 2% solvent A (0.1% formic acid in water) to 35% solvent B (0.1% formic acid in acetonitrile) at 350 nL/min over 35 min. MS and MS/MS spectra were acquired in a data-dependent mode with MS spectra acquired in the Orbitrap at 30,000 resolving power and 6 CID MS/MS spectra acquired per MS in the LTQ linear ion trap. Dynamic exclusion was set at 90 seconds to prevent repeated MS/MS on the same precursor ion.
The identified peptides were searched against a random decoy protein database for evaluating the false positive rates. […] The decoy peptides were removed from the data. Protein IDs were assigned only when at least two unique peptides were identified from the same protein. For SILAC experiment, Light/Heavy ratios for the identified peptides were calculated, using ProteinProspector. The media Light/Heavy ratios of all the peptides identified for each protein were used to represent the Light/Heavy ratio of the protein.

T2 sequence (Q13490+P61081 fused): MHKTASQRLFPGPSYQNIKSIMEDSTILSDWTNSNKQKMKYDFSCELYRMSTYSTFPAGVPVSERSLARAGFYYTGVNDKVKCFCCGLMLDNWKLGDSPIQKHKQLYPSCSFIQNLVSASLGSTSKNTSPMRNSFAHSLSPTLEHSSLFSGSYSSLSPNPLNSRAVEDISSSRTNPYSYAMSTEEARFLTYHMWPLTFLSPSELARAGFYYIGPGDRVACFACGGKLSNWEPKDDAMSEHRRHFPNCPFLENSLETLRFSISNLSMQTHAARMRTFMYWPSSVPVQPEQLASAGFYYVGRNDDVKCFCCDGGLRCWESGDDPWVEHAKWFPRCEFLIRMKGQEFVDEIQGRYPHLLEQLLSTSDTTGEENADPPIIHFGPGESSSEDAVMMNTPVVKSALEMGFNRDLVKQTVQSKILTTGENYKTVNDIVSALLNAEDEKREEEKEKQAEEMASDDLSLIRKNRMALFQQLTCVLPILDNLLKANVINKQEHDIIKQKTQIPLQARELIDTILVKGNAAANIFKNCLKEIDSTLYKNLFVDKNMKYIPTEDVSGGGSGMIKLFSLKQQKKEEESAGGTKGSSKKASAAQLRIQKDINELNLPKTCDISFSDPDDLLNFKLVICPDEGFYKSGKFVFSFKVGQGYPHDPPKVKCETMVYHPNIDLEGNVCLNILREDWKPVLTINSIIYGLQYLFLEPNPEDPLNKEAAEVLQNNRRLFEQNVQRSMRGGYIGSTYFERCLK
T1 sequence (P98170+P61081 fused): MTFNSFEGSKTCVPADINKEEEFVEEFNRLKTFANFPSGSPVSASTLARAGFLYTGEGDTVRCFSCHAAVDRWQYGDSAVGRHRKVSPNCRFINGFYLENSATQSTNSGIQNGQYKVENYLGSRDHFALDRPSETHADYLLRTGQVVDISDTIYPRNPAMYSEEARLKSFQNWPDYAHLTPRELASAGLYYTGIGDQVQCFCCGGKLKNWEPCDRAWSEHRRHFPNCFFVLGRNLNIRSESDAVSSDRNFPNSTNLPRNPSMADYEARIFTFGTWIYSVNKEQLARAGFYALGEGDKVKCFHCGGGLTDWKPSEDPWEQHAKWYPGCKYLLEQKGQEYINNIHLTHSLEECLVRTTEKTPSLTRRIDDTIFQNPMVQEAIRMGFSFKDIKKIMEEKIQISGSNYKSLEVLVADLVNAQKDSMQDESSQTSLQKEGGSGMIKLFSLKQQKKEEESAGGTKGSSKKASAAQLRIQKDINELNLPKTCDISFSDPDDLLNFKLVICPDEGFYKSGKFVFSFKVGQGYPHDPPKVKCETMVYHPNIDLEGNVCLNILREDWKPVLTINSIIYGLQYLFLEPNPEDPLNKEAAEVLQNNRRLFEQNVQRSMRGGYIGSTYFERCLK

- L/H (Light/Heavy ratio) [1]: 4.35
B1: Pre-mRNA-splicing factor SPF27: potential XIAP substrate (protein, UniProt O75934 2-225, looked up)
Pre-mRNA-splicing factor SPF27: AGTGLVAGEVVVDALPYFDQGYEAPGVREAAAALVEEETRRYRPTKNYLSYLTAPDYSAFETDIMRNEFERLAARQPIELLSMKRYELPAPSSGQKNDITAWQECVNNSMAQLEHQAVRIENLELMSQHGCNAWKVYNENLVHMIEHAQKELQKLRKHIQDLNWQRKNMQLTAGSKLREMESNWVSLVSKNYEIERTIVQLENEIYQIKQQHGEANKENIRQDF

- L/H (Light/Heavy ratio) [2]: 4.35
B2: Malate dehydrogenase, mitochondrial: potential cIAP1 substrate (protein, UniProt P40926 25-338, looked up)
Malate dehydrogenase, …: AKVAVLGASGGIGQPLSLLLKNSPLVSRLTLYDIAHTPGVAADLSHIETKAAVKGYLGPEQLPDCLKGCDVVVIPAGVPRKPGMTRDDLFNTNATIVATLTAACAQHCPEAMICVIANPVNSTIPITAEVFKKHGVYNPNKIFGVTTLDIVRANTFVAELKGLDPARVNVPVIGGHAGKTIIPLISQCTPKVDFPQDQLTALTGRIQEAGTEVVKAKAGAGSATLSMAYAGARFVFSLVDAMNGKEGVVECSFVKSQETECTYFSTPLLLGKKGIEKNLGIGKVSSFEEKMISDAIPELKASIKKGEDFVKTLK

- L/H (Light/Heavy ratio) [2]: 4.1
B3: 3-hydroxyacyl-CoA dehydrogenase type-2: potential cIAP1 substrate (protein, UniProt Q99714 2-261, looked up)
3-hydroxyacyl-CoA …: AAACRSVKGLVAVITGGASGLGLATAERLVGQGASAVLLDLPNSGGEAQAKKLGNNCVFAPADVTSEKDVQTALALAKGKFGRVDVAVNCAGIAVASKTYNLKKGQTHTLEDFQRVLDVNLMGTFNVIRLVAGEMGQNEPDQGGQRGVIINTASVAAFEGQVGQAAYSASKGGIVGMTLPIARDLAPIGIRVMTIAPGLFGTPLLTSLPEKVCNFLASQVPFPSRLGDPAEYAHLVQAIIENPFLNGEVIRLDGAIRMQP

- L/H (Light/Heavy ratio) [1]: 21.4
- L/H (Light/Heavy ratio) [2]: 39.2
B4: Serine protease HtrA2, mitochondrial: known IAP substrate (protein, UniProt O43464 134-458, looked up)
Serine protease HTRA2, …: AVPSPPPASPRSQYNFIADVVEKTAPAVVYIEILDRHPFLGREVPISNGSGFVVAADGLIVTNAHVVADRRRVRVRLLSGDTYEAVVTAVDPVADIATLRIQTKEPLPTLPLGRSADVRQGEFVVAMGSPFALQNTITSGIVSSAQRPARDLGLPQTNVEYIQTDAAIDFGNSGGPLVNLDGEVIGVNTMKVTAGISFAIPSDRLREFLHRGEKKNSSSGISGSQRRYIGVMMLTLSPSILAELQLREPSFPDVQHGVLIHKVILGSPAHRAGLRPGDVILAIGEQMVQNAEDVYEAVRTQSQLAVQIRRGRETLTLYVTPEVTE

- L/H (Light/Heavy ratio) [1]: 7.39
- L/H (Light/Heavy ratio) [2]: 53.4
B5: SMAC/Diablo homolog, mitochondrial: known IAP substrate (protein, UniProt Q9NR28 22-239, looked up)
Diablo IAP-binding …: LCVPVVANFKKRCFSELIRPWHKTVTIGFGVTLCAVPIAQKSEPHSLSSEALMRRAVSLVTDSTSTFLSQTTYALIEAITEYTKAVYTLTSLYRQYTSLLGKMNSEEEDEVWQVIIGARAEMTSKHQEYLKLETTWMTAVGLSEMAAEAAYQTGADQASITARNHIQLVKLQVEEVHQLSRKAETKLAEAQIEELRQKTQEEGEERAESEQEAYLRED
